Experimental findings from patent US20090062228, “piRNA and uses related thereto” (published 2009) are described below.

In data set [1] the target is T1, Aubergine (Aub) (Drosophila melanogaster, UniProt O76922 SEQ:1-866).
T1 sequence: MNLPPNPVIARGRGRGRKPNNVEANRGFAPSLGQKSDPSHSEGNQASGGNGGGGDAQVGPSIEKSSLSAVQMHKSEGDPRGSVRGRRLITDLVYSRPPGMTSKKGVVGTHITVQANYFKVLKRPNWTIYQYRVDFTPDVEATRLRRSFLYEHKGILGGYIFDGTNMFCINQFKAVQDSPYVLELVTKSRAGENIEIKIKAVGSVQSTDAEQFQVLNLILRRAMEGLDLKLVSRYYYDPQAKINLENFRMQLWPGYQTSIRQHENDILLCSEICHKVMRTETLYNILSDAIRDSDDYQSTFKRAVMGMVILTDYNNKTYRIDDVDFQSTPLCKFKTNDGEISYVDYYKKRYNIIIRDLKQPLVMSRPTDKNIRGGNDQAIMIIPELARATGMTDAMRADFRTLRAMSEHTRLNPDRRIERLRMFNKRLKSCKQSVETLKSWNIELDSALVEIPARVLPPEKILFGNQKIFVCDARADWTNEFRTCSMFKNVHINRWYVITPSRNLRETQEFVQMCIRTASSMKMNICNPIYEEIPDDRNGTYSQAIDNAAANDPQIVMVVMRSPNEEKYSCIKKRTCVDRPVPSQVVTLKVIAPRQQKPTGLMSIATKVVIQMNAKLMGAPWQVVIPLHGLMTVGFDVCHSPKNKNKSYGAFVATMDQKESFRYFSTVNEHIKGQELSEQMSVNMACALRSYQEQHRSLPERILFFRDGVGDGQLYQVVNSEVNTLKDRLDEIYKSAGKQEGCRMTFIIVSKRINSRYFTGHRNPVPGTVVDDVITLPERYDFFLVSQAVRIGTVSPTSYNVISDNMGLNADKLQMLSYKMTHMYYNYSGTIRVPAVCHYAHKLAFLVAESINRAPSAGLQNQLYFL
Nature of the data set: RNA cloned and sequenced from Aub immunoprecipitate of ovary extract; 5'U. Particulars: tags: none; endogenous RNP immunopurified from ovary lysate. Here is the method: (§1) Ovaries were dissected into ice cold PBS, flash frozen in liquid nitrogen and stored at −80 degrees. Ovary extract was prepared in Lysis buffer (20 mM HEPES-NaOH pH 7.0, 150 mM NaCl, 2.5 mM MgCl2, 250 mM Sucrose, 0.05% NP40, 0.5% Triton X-100. 1× Roche-Complete EDTA free) using a glass dounce homogenizer. Extracts were cleared by several spins at 14000 rpm. Extracts (10 microgram/microliter) were incubated with primary antibodies (1:50) for 4 h at 4 degrees per ml of extract. Fifteen microliters of Protein-G Sepharose (Roche) were added and mixtures were further incubated for 1 h at 4 degrees. Beads were washed 4 times in lysis buffer. RNA extraction from beads and 5′ labeling of RNAs was done as described in (Aravin et al., 2006)

In data set [2] the target is T2, Argonaute 3 (Ago3) (Drosophila melanogaster, UniProt Q7PLK0 SEQ:1-867).
T2 sequence: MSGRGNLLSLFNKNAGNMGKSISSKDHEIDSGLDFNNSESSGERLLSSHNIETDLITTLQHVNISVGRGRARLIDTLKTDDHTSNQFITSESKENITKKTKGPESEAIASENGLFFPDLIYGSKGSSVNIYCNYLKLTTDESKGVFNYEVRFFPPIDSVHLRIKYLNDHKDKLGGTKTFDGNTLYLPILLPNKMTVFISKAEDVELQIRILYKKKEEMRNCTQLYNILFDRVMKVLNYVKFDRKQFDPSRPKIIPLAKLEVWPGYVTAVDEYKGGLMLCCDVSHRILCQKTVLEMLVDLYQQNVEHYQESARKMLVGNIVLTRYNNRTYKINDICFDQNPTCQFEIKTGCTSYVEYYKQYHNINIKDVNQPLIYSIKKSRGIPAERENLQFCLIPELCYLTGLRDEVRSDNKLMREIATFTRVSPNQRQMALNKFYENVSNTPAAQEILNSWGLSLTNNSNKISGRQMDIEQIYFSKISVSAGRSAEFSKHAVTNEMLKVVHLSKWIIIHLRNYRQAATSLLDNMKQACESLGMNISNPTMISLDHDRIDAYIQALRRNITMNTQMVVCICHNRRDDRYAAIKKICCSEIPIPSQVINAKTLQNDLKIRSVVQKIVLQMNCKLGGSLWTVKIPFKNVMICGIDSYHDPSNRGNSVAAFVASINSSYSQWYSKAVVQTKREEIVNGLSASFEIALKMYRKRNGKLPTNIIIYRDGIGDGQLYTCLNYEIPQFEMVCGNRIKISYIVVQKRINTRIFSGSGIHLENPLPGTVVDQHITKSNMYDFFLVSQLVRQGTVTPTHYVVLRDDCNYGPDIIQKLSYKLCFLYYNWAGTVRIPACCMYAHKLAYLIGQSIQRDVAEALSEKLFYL
Nature of the data set: RNA cloned and sequenced from Ago3 immunoprecipitate of ovary extract; A at position 10. The settings on record: tags: none; endogenous RNP immunopurified from ovary lysate. Here is the method: as §1

Regarding UACGCAGAGGCCUAAGUAAAUAGUC (ssRNA) [roo antisense piRNA], the binding result in data set [1] is “binds”.

Regarding CCUCUGCGUAGGCCAUUUACUUUAAG (ssRNA) [roo sense piRNA], the binding result in data set [2] was “binds”.
